Measured values reported in patent US20250297004A1, “NECTIN-4 BINDING AGENTS” (INNATE PHARMA, priority 2022, published 2025).
Where a chain is given by its changes, count along the chain named. Entries after “also recorded” stand apart in the source; their conditions may differ.

T1: wild-type human Nectin-4 protein (Nectin4-His-BirA) (Homo sapiens, UniProt Q96NY8)
T1 construct: human Nectin4-His-BirA protein diluted to 5 μg/mL in Kinetic buffer 10× were captured onto the biosensors; BirA (biotinylation acceptor tag) (C)
T1 sequence (Q96NY8 with tags, fused parts or gaps): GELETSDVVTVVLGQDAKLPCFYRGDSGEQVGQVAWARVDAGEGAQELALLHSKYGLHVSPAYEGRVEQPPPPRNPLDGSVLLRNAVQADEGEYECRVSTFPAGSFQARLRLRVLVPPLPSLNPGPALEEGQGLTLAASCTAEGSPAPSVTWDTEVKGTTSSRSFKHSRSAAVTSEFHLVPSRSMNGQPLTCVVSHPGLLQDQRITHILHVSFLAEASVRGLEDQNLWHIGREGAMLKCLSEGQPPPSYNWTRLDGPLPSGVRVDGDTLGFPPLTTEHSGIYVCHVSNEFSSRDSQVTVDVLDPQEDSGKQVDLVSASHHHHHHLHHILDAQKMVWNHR

T2: human Nectin-4 Mutant 1 (S58P/G59D/Q61A/N106D/P107A) (Homo sapiens, UniProt Q96NY8, G59D/N106D/P107A/Q61A/S58P)
T2 construct: expressed in transfected cells; host or cells: HEK293T
T2 sequence (Q96NY8 32-510 S58P/G59D/Q61A/N106D/P107A): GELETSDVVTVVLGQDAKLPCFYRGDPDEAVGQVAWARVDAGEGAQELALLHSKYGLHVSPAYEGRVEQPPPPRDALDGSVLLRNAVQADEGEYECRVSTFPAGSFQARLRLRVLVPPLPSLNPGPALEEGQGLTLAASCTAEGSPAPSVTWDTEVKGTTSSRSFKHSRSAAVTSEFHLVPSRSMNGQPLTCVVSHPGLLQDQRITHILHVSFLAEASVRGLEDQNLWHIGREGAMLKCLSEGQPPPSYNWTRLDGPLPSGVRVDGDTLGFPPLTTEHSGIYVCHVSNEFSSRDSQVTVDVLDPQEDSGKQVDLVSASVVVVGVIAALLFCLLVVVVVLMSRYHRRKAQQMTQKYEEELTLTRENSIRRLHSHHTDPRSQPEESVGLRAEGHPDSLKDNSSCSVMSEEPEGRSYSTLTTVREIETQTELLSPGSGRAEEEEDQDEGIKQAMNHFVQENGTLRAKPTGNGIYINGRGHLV

T3: human Nectin-4 Mutant 2 (V90S/P92A/A93S/E95A/G96D) (Homo sapiens, UniProt Q96NY8, A93S/E95A/G96D/P92A/V90S)
T3 construct: expressed in transfected cells; host or cells: HEK293T
T3 sequence (Q96NY8 32-510 V90S/P92A/A93S/E95A/G96D): T2 sequence (Q96NY8 32-510 S58P/G59D/Q61A/N106D/P107A) with P27S, D28G, A30Q, V59S, P61A, A62S, E64A, G65D, D75N, A76P

B1: 5E7 (antibody, V domains shown)
VH: QVQLQQPGAELVKPGASVKLSCKASGYIFTSYWMHWVKQRPGQGLEWIGEIDPSDSYTNYNQKFKGKATLTLDKSSSTTYMQLSSLTSEDSAVYYCVRGYGNYGDYWGQGTTLTVSSASTKGP
VL: DVVMTQAAFSNPVTLGTSASISCRSSKSLLHSNGITYLYWYLQKPGQSPQLLIYQMSNLASGVPDRFSSSGSGTDFTLRISRVEAEDVGVYYCAQNLELPWTFGGGTKLEIKRTVAAP
B2: N41 (antibody, V domains shown)
VH: QVQLKQSGPGLVQPSQSLSITCTVSGFSLTNYGVHWVRQSPGKGLEWLGVIWSGGSTDYNAAFISRLSISKDTSKSQVFFKMNSLQADDTAIYYCARELIHAMDNWGQGTSVTVSS
VL: DIQMTQSPASLSVSVGETVTITCRASENIYSNLAWYQQKQGNSPQLLVFAATNLADGVPSRFSGSGSGTQYSLKINSLQSEDFGTYYCQHFWGTPTFGGGTKLEIK

Assays:
[1] = system: SUM190 cells subcutaneously engrafted in CB17-SCID mice; test: In vivo efficacy of ggfg-Dxd ADCs, Nectin-4 low/SUM190 mouse model of human breast cancer; settings: single i.v. injection 3 mg/kg, each antibody conjugated to ggfg-Dxd, DAR=8, FIG. 4
Description: SUM190 cells were subcutaneously engrafted in CB17-SCID immunodeficient mice at a dose of 0.5 million cells in 100 μl of Matrigel with growth factor diluted at ½ in PBS. When tumors reached a volume between 195 and 250 mm3, mice were randomized into groups of 9 mice for intravenous treatment with a single injection of 3 mg/kg of camptothecin ADCs. Tumor growths were followed twice a week. Kaplan Meier survival curves were established by using GraphPad Prism V7 software according to the following criteria: When the tumor volume reached 1500 mm3, mice were euthanized and considered dead on the day of sacrifice (D).

[2] = molecular target: T1, wild-type human Nectin-4 protein (Nectin4-His-BirA); test: Epitope mapping by competition for binding to Nectin-4 (SPR/OCTET); settings: listed as antibody = 1st mAb injected; 10 μg/mL each
Description: Briefly, human Nectin4-His-BirA protein diluted to 5 μg/mL in Kinetic buffer 10× were captured onto the biosensors. The first antibody was injected diluted to 10 μg/mL in Kinetic buffer 10×, followed by a second injection of the first antibody diluted to 10 μg/mL in Kinetic buffer 10× in order to saturate the signal. The second antibody was injected diluted to 10 μg/mL in Kinetic buffer 10×.
Squares with “O” indicate substantial or direct competition between the 1st and 2nd antibody (1st antibody prevents/causes loss of binding of 2nd antibody), squares with “X” indicate potential partial competition (1st antibody causes a potential reduction but not loss of binding of 2nd antibody), squares with “N/A” indicate no competition.

[3] = molecular target: T2, human Nectin-4 Mutant 1 (S58P/G59D/Q61A/N106D/P107A); test: Epitope mapping using Nectin-4 point mutants; format: binding
Description: (§1) Combined with the published structures of the Nectin-4 domains, Nectin-4 mutations at surface exposed amino acids residues were designed. Nectin-4 domain structure was modelled based on Protein Data Bank reference: 4FRW (domains V et C1). Human Nectin-4 used was NCBI Reference Sequence: NP_112178.2, mouse Nectin-4 used was NCBI Reference Sequence: AAL79833.1, cynomolgus Nectin-4 used was NCBI Reference Sequence: XP_005541277.1, rat Nectin-4 used was NCBI Reference Sequence: NP_001102546.1. The cells expressing the Nectin-4 mutants are then be used for testing anti-Nectin-4 antibodies for loss of binding to different Nectin-4 mutants to identify antibodies that bind to the same site on Nectin-4. […] FIGS. 8A and 8B show different view of a molecular model of the human Nectin-4 protein, indicating the position of substituted residues in mutants 1, 2, 3, 4, 5, 6, 7, 8 and 9.
(§2) Nectin-4 mutants were generated by PCR. The sequences amplified were run on agarose gel and purified using the Macherey Nagel PCR Clean-Up Gel Extraction kit. The purified PCR products generated for each mutant were then ligated into an expression vector, with the ClonTech InFusion system. The vectors containing the mutated sequences were prepared as Miniprep and sequenced. After sequencing, the vectors containing the mutated sequences were prepared as Midiprep using the Promega PureYield™ Plasmid Midiprep System. HEK293T cells were grown in DMEM medium (Invitrogen), transfected with vectors using Invitrogen's Lipofectamine 2000 and incubated at 37° C. in a CO2 incubator for 48 hours prior to testing for transgene expression. The targeted amino acid mutations are shown in Table 13 below, listing the residue present in wild-type Nectin-4/position of residue/residue present in mutant Nectin-4, with position reference being to the Nectin-4 protein with leader peptide shown in SEQ ID NO: 1.
(§3) (+) means that antibodies-Nectin-4 association occurs.

[4] = molecular target: T3, human Nectin-4 Mutant 2 (V90S/P92A/A93S/E95A/G96D); test: Epitope mapping using Nectin-4 point mutants; format: binding
Description: as §1, §2, §3

| Molecule | control of tumor growth ([1]; 3 mg/kg) | competition, 2nd mab injected: 5E7 [2] | association with Mutant 1 [3] | association with Mutant 2 [4] | control of tumor growth [1] | competition, 2nd mab injected: 14A5 [2] | competition, 2nd mab injected: MABT64 [2] | competition, 2nd mab injected: N41 [2] |
| --- | --- | --- | --- | --- | --- | --- | --- | --- |
| B1 | strong ability to prevent tumor growth; also recorded: able to effectively control tumor growth | ◯ | + | + |  |  |  |  |
| B2 |  |  | − | + | no longer showed the ability to control tumor growth | ◯ | ◯ | ◯ |
